Source: the nanobody polyreactivity screen of Harvey et al. (2022)

test: yeast display, Sf9 membrane polyspecificity reagent, FACS + sequencing; frameworks hold sequencing errors
Method in brief: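 Galactose-induced (36–48 hours) yeast carrying a synthetic nanobody display library were exposed to 10% biotinylated, detergent-solubilized Sf9 membrane reagent at 4 °C for 1 hour. FACS followed streptavidin microbead enrichment, using low and high (top ~1%) gates for expression (anti-HA) and reagent binding (streptavidin). Colony PCR, MiSeq 2 × 250 sequencing and CDR-length filtering followed. Labels for polyreactivity reflect the gate of origin.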

Row | Sequence | polyreactivity (PSR sort gate)
1 | QVQLVESGGGLVQAGGSLRLSCAASGSTFQWYTMGWYRQAPGKERELVAAITWSGASTYYADSVKGRFTISRDNAKNTVYLQMNSLKPDYTAVYYCAADWRRGSGFYYWGQGTQVTVSS | high polyreactivity
2 | QVQLVESGGGLVQAGGSLRLSCAASGSTFQYNAMGWYRQAPGKERELVAVISGSGSRTYYADSVKGRFTISRDNAKNTVYLQMNSLKPEDTAVYYCAKQRGGEPRSSTYYYWGQGTQVTVSS | high polyreactivity
3 | QVQLVESGGGLVQAGGSLRLSCAASGSTFQYYAMGGYIQAPGKQRQLVAAISSGGSTYYADSVKGRFTISRDNAMNTVYLQMNSLKPEDTAVYYCAADGYYSVSRYTSYKYYYWGQGTQVTVSS | high polyreactivity
4 | QVQLVESGGGLVQAGGSLRLSCAASGSTFQYYAMGWYRQAPGKERELVAAISSGGSTYYADSVKGRFTISRDIAKNTVYLQMNSLKPEDTAVYYCAAYEYDGDYGYCGQGTQVTVSS | high polyreactivity
5 | QVQLVESGGGLVQAGGSLRLSCAASGSTFQYYARGWYRQAPGKETELVAAISDRDGGTFYADSVKGRFTISRDNAKNTVYLQMNSLKPEDTAVYYCATDAVGFRLDDNGYWGQGTQVTVSS | low polyreactivity
6 | QVQLVESGGGLVQAGGSLRLSCAASGSTFQYYDMGWYRQAPGKERELVASITGSGDSTYYADSVKGRFTISRDNAKNTVYLQMNSLKPEDSAVYYCAAQNTWSGDYDYWGQGTQVTVSS | low polyreactivity
7 | QVQLVESGGGLVQAGGSLRLSCAASGSTFRANAMGWYRQAPGKERELVAAISSGGSTYYADSVKGRFTISRDNAKNTVYLQMNSLKPEDTAVYYCAAVTVKYDESGIYYSDDDYWGQGTQVTVSS | high polyreactivity
8 | QVQLVESGGGLVQAGGSLRLSCAASGSTFRANLMGRYRQAPGKERELVAAITSAGGSTYYADSVKGRFTISRDNAKNTVYIQMNSLKPEDTAVYYCNKQERPGPGRARYNYWGQGTQVTVSS | high polyreactivity
9 | QVQLVESGGGLVQAGGSLRLSCAASGSTFRAYAMGWYRQAPGKEREFVADISWSGGSTYYADSVKGRFTISRDNAKNTVYLQMNSLKPEDSAVYYCAAEAAPLIIVTYDYWGQGTQVTVSS | low polyreactivity
10 | QVQLVESGGGLVQAGGSLRLSCAASGSTFRDNAMGWYRQAPGTERELVAAISRRGGNTYYADSVKGRFTISRDNAKNTVYLQMNSLKPEDTAVYYCASEVKTSYSYTHDGYWGQGTKVTVSS | high polyreactivity
11 | QVQLVESGGGLVQAGGSLRLSCAASGSTFRDNVMGWYRQAPGKEWEFVAAISSSVGSTYYADSVKGRFTISRDNAKNTVYLQMNSLKPEDTAVYYCAARLWPSYLSYGKTGDYWGQGTQVTVSS | high polyreactivity
12 | QVQLVESGGGLVQAGGSLRLSCAASGSTFRDYAMGWYRQAPGKERELVAAITYSDGGTYYADSVKGRFTISRDNAKNTVYLQMNSLKPEDTAVYYCAADYPIYSFYYSAYFIFGYWGQGSQVTVSS | low polyreactivity
13 | QVQLVESGGGLVQAGGSLRLSCAASGSTFRDYAMGWYRQAPGTERELVAAITSGGSTNYADSVKGRFTISRDNAKNSVYLQMISLKPEDTAVYYCNARYAGWYTPWGRQSVYSDDYWGQGTQVTVSS | low polyreactivity
14 | QVQLVESGGGLVQAGGSLRLSCAASGSTFRDYDMGWYRQAPGKERELVAAISLSGGRTHYADSVKGRFTISRDNAKNTVYLQMNSLKPEDTAVYYCAARNTGPVQYYYWGQGTQVTVSS | low polyreactivity
15 | QVQLVESGGGLVQAGGSLRLSCAASGSTFRFNTMGWYRQAPGKERELVAAITRGGSTNYADSVKGRFTISRDNAKNTVYLQMNSLKPEDTAVYYCNTTRYSVRKYDYWGQGTQVTVSS | low polyreactivity
16 | QVQLVESGGGLVQAGGSLRLSCAASGSTFRFYAMGWYRQAPGKERELVAGITGSGDSTYYADSVKGRFTISRDNAKNTVYLQMNSLKPEDTAVYYCNKRFLFAGFDYLGQGTQVTVSS | low polyreactivity
17 | QVQLVESGGGLVQAGGSLRLSCAASGSTFRGNAMGWYRQAPGKERELVAGISGSGGRTYYADSVKGRFTISRDNAKNTVYLQMNSLKPEDTAVYYCAARSTVYEYFYYRGWWEYYYWGQGTQVTVSS | low polyreactivity
18 | QVQLVESGGGLVQAGGSLRLSCAASGSTFRGNAMGWYRQAPGKERELVATISRSNGGSTYYADSVKGRFTISRDIAKNTVYLQMNSLKPEDTEVYYCAARSYIGISTYGYWGLGTQVTVSS | low polyreactivity
19 | QVQLVESGGGLVQAGGSLRLSCAASGSTFRGNAMGWYRQAPGNEREFVAAITVSGGSTYYADSVKGRFTSSRDNAKNTVYLQMISLKPEDTAVYYCAGLTRGRGYDSWGQGTQVTVSS | high polyreactivity
20 | QVQLVESGGGLVQAGGSLRLSCAASGSTFRGYAMGWSRQAPGKERELVATITSGGSTKFADSVKGRVTISRDNAKNTVYLQMNSLKPEDTAVYYFNAGPRSWSPYRHWVDFWGQGTQVTVSS | low polyreactivity
21 | QVQLVESGGGLVQAGGSLRLSCAASGSTFRGYAMGWYRQAPGKERELVAAISWSGGSTYYADSVKGRFTISRDNAKNTVYLQMNSLKPEDTAVYYCNAVLYRFAYNYWGQGTQVTVSS | low polyreactivity
22 | QVQLVESGGGLVQAGGSLRLSCAASGSTFRGYVMGWYRQAPGKERELVAAITWGGGRTYYADSVKGRFTISRDNAKNTVYLQMNSLKPEDTAVYYCAARVRGQGSYQFGYWGQGTQVTVSS | high polyreactivity

Row | Sequence | polyreactivity (PSR sort gate)
23 | QVQLVESGGGLVQAGGSLRLSCAASGSTFRGYVMGWYRQAPGKERELVASINWDGGSTYYADSVKGRFTISRDNAKNTVYLQMNSLKPEDTAVYYCAARRVGGGFYTWRNPAYEYWGQGTQVTVSS | high polyreactivity
24 | QVQLVESGGGLVQAGGSLRLSCAASGSTFRIYAMGWYRQAPGKERELVAAISSGGRTNYADSVKGRFTISRDNAKNNVYLQMNSLKPEDTAVYYCNAVFLPTYHFDYWGQGTQVTVSS | high polyreactivity
25 | QVQLVESGGGLVQAGGSLRLSCAASGSTFRIYAMGWYRQAPGKERELVAAISWSSGSTYYADSVKGRFTISRDNAKNTVYFQMNSLKPEDTAVYYCATYARRSGYYYWGQGTQVTVSS | high polyreactivity
26 | QVQLVESGGGLVQAGGSLRLSCAASGSTFRIYAMGWYRQAPGKERELVAAITSGGDTNYADSVKGRFTISRDNAKNTVYLQMNSLKPEDTAVYYCAADGHSVYTELDYWGQGTQVTVSS | low polyreactivity
27 | QVQLVESGGGLVQAGGSLRLSCAASGSTFRKYAMGWYRQAPGKEREFVAAITWSTGTTYYADSVKGRFTISRDNAKNNVYLQMNSLKPEDTAVYYSAADSQPPHELDESIEHESWGQGTQVTVSS | low polyreactivity
28 | QVQLVESGGGLVQAGGSLRLSCAASGSTFRKYAMGWYRQAPGKEREFVAAITWSTGTTYYADSVKGRFTISRDNAKNTVYLQMNSLIPEDTAVYYCAADSQPPHELYESIEHESWGQGTQVTVSS | low polyreactivity
29 | QVQLVESGGGLVQAGGSLRLSCAASGSTFRLYAMGWYRQAPGKERELVAAISSRGGTTYYADSVKGRFTISRDNAKNTVYLQMNSLKPEDTAVYYCAAPRASQYGDDYWGQGTQVTVSS | high polyreactivity
30 | QVQLVESGGGLVQAGGSLRLSCAASGSTFRNNAMGWYRQAPGKERELVAAISRGGGSTYYADSVKGRFTISRDNAKNTVYLQMNSLKPEDTAVYYCARRPTGIYDYWGQGTQVTVSS | high polyreactivity
31 | QVQLVESGGGLVQAGGSLRLSCAASGSTFRNYAMGWYRQAPGKERELVAAISGSGGRTNYADSVKGRFTISRDNAKNTVYLQMNSLKPEDNAVYYCNARFPDWALSEISHSTTYGYWGQGTQVTVSS | low polyreactivity
32 | QVQLVESGGGLVQAGGSLRLSCAASGSTFRNYAMGWYRQAPGKERELVAAISGSGGRTNYADSVKGRFTISRDNAKNTVYLQMNSLKPEDTAVYYCNGRFPDWALSEISHSTTYGYWGQGTQVTVSS | low polyreactivity
33 | QVQLVESGGGLVQAGGSLRLSCAASGSTFRNYAMGWYRQAPGKERELVAAISRGDGTYYADSVKGRFTISRDNAKNTVYLQMNSLKPEDTAVYYCAAAYRGRQNPMGYWGQGTQVTVSS | high polyreactivity
34 | QVQLVESGGGLVQAGGSLRLSCAASGSTFRNYSMGWYRQAPGKERELVAAISGSGGRTNYADSVKGRFTISRDNAKNTVYLQMNSLKPEDTAVYYCNADGGPGYPRAYDYWGQGTQVTVSS | low polyreactivity
35 | QVQLVESGGGLVQAGGSLRLSCAASGSTFRPNAMGWYRQAPGKERELVAGISLNGTSTYYADSVKGRFTISRDNAKNTVYLQMNSLKPEDTAVYYCAADYQCGRGAEPYVFFDPEMDYWGQGTQVTVSS | low polyreactivity
36 | QVQLVESGGGLVQAGGSLRLSCAASGSTFRPSAMGWYRQAPGKERELVAAIRSGRTSYADSVKGRFTISRDYAKNTVYLQMNSLKPEDTAVYYCAKASRGGYYWGQGTQVTVSS | high polyreactivity
37 | QVQLVESGGGLVQAGGSLRLSCAASGSTFRPYAMGGYRQAPGKERELVARITGSGDSTYYADSVKGRFTISRDNAKNTVYLQMNSLKPEDTAVYYCAREFVFSLSGFDYWGQGTQVSVSS | low polyreactivity
38 | QVQLVESGGGLVQAGGSLRLSCAASGSTFRPYAMGWYRPAPGKEREFVASISNTGGSTSYADSVKGRFTISRDNAMNTVYFQMNSLKPEDTAVYYCAARFGYRPWYRMDYWGQGTQVAVSS | high polyreactivity
39 | QVQLVESGGGLVQAGGSLRLSCAASGSTFRPYAMGWYRQAPGKERELVARITKNGGSTYYADSVKGRFTISRDNAKNTVYLQMNSLKPEDTEVYYCAVRAWDPYTGKSDYWGQGTQVTVSS | low polyreactivity
40 | QVQLVESGGGLVQAGGSLRLSCAASGSTFRQYAMGWYRQAPGKERELVAAISTNGVSTRYADSVKGRFTISRDNAKNTVYLQMNSLKPEDTAVYSCAAGYRKSYTYYRYDYWGQGTQVTVSS | high polyreactivity
41 | QVQLVESGGGLVQAGGSLRLSCAASGSTFRQYAMGWYRQAPGKERELVAATTSSGGSTYYADSVKGRFTISRDNAKNTVYLQMNSLKPDDTAVYYCNVDGRSDGDDYWGQGTHVTVSS | low polyreactivity
42 | QVQLVESGGGLVQAGGSLRLSCAASGSTFRQYTMGWYRQAPGKERELVAAISRGCGNTYYADSVKGRFTISRDNAKNTVYLQMNSLKPEDTAVYYCAADRSYSGDSWGQGTQVTVSS | high polyreactivity
43 | QVQLVESGGGLVQAGGSLRLSCAASGSTFRRNAMGWYRQAPGKERELVAAITWRGGSTSYADSVKGRFTISRDNAKNTVYLQMNSLKPEDTGVYYCAAVKGHSQVLSYGYWGQGTQVTVSS | low polyreactivity
